The values below are quoted from earlier work in patent US20220184236A1, “NANOPARTICLE, CONTRAST AGENT FOR MAGNETIC RESONANCE IMAGING COMPRISING SAME AND ZWITTERIONIC LIGAND COMPOUND” (ASTELLAS PHARMA INC., priority 2018, published 2022).

The conditions of the data set: authentic sample, stated size.

B1: ovalbumin (protein, UniProt P01012 2-386, looked up)
Ovalbumin: GSIGAASMEFCFDVFKELKVHHANENIFYCPIAIMSALAMVYLGAKDSTRTQINKVVRFDKLPGFGDSIEAQCGTSVNVHSSLRDILNQITKPNDVYSFSLASRLYAEERYPILPEYLQCVKELYRGGLEPINFQTAADQARELINSWVESQTNGIIRNVLQPSSVDSQTAMVLVNAIVFKGLWEKAFKDEDTQAMPFRVTEQESKPVQMMYQIGLFRVASMASEKMKILELPFASGTMSMLVLLPDEVSGLEQLESIINFEKLTEWTSSNVMEERKIKVYLPRMKMEEKYNLTSVLMAMGITDVFSSSANLSGISSAESLKISQAVHAAHAEINEAGREVVGSAEAGVDAASVSEEFRADHPFLFCIKHIATNAVLFFGRCVSP
notes: authentic sample for SEC, particle size 6.1 nm
Consider B1, for which the particle size is recorded as 6.1 nm.
